Results on ten molecules are retold here after patent US20210403527A1 (published 2021).

The target of this assay is T1, NY-ESO-1 peptide on HLA-A*02:01 (human).
T1 peptide: SLLMWITQC
As to the kind of experiment: multimer staining.

B1: TCR001 (TCR, V domains shown)
Valpha: DAKTTQPNSMESNEEEPVHLPCNHSTISGTDYIHWYRQLPSQGPEYVIHGLTSNVNNRMASLAIAEDRKSSTLILHRATLRDAAVYYCILRPDSWGKFQFGAGTQVVVTP
Vbeta: NAGVTQTPKFRILKIGQSMTLQCAQDMNHNYMYWYRQDPGMGLKLIYYSVGAGITDKGEVPNGYNVSRSTTEYFPLRLELAAPSQTSVYFCASSYSGGSPLHFGNGTRLTVT
Regarding B1, the binding result is “recognises”.

B2: TCR050 (TCR, V domains shown)
Valpha: DAKTTQPNSMESNEEEPVHLPCNHSTISGTDYIHWYRQLPSQGPEYVIHGLTSNVNNRMASLAIAEDRKSSTLILHRATLRDAAVYYCILREGNNDMRFGAGTRLTVKP
Vbeta: NAGVTQTPKFRILKIGQSMTLQCAQDMNHNYMYWYRQDPGMGLKLIYYSVGAGITDKGEVPNGYNVSRSTTEYFPLRLELAAPSQTSVYFCASSWTDNQPQHFGDGTRLSIL
Consider B2, for which the binding result is on record as “recognises”.

B3: TCR167 (TCR, V domains shown)
Valpha: DAKTTQPNSMESNEEEPVHLPCNHSTISGTDYIHWYRQLPSQGPEYVIHGLTSNVNNRMASLAIAEDRKSSTLILHRATLRDAAVYYCILRPDSWGKFQFGAGTQVVVTP
Vbeta: GAVVSQHPSWVICKSGTCVKIECRSLDFQATTMFWYRQFPKQSLMLMATSNEGSKATYEQGVEKDKFLINHASLTLSTLTVAGAHPEDSSFYICSAMTVMNTEAFFGQGTRLTVV
On to B3, for which the binding result was “recognises”.

B4: TCR184 (TCR, V domains shown)
Valpha: DQQVKQNSPSLSVQEGRISILNCDYTNSMFDYFLWYKKYPAEGPTFLISISSIKDKNEDGRFTVFLNKSAKHLSLHIVPSQPGDSAVYFCAARKNYGGSQGNLIFGKGTKLSVKP
Vbeta: DAGVTQSPTHLIKTRGQQVTLRCSPISGHKSVSWYQQVLGQGPQFIFQYYEKEERGRGNFPDRFSARQFPNYSSELNVNALLLGDSALYLCASSLGSYDYTFGSGTRLTVV
As for B4, the binding result is given as “recognises”.

B5: TCR018 (TCR, V domains shown)
Valpha: AQTVTQSQPEMSVQEAETVTLSCTYDTSESDYYLFWYKQPPSRQMILVIRQEAYKQQNATENRFSVNFQKAAKSFSLKISDSQLGDAAMYFCAYRSANSGYALNFGKGTSLLVTP
Vbeta: ETGVTQTPRHLVMGMTNKKSLKCEQHLGHNAMYWYKQSAKKPLELMFVYNFKEQTENNSVPSRFSPECPNSSHLFLHLHTLQPEDSALYLCASSQAHYTEAFFGQGTRLTVV
In the case of B5, the binding result was “recognises”.

B6: TCR090 (TCR, V domains shown)
Valpha: GENVEQHPSTLSVQEGDSSVIKCTYSDSASNYFPWYKQELGKRPQLIIDIRSNVGEKKDQRIAVTLNKTAKHFSLHITETQPEDSAVYFCAATGYGQNFVFGPGTRLSVLP
Vbeta: EAQVTQNPRYLITVTGKKLTVTCSQNMNHEYMSWYRQDPGLGLRQIYYSMNVEVTDKGDVPEGYKVSRKEKRNFPLILESPSPNQTSLYFCASSLRGPYGYTFGSGTRLTVV
For B6, the binding result is “recognises”.

B7: TCR063 (TCR, V domains shown)
Valpha: QKEVEQNSGPLSVPEGAIASLNCTYSDRGSQSFFWYRQYSGKSPELIMSIYSNGDKEDGRFTAQLNKASQYVSLLIRDSQPSDSATYLCAVNILASGGSYIPTFGRGTSLIVHP
Vbeta: ETGVTQTPRHLVMGMTNKKSLKCEQHLGHNAMYWYKQSAKKPLELMFVYNFKEQTENNSVPSRFSPECPNSSHLFLHLHTLQPEDSALYLCASSHGTGYNYGYTFGSGTRLTVV
On to B7, for which the binding result was “recognises”.

B8: TCR188 (TCR, V domains shown)
Valpha: DAKTTQPNSMESNEEEPVHLPCNHSTISGTDYIHWYRQLPSQGPEYVIHGLTSNVNNRMASLAIAEDRKSSTLILHRATLRDAAVYYCILNTGTASKLTFGTGTRLQVTL
Vbeta: GAVVSQHPSWVICKSGTSVKIECRSLDFQATTMFWYRQFPKQSLMLMATSNEGSKATYEQGVEKDKFLINHASLTLSTLTVTSAHPEDSSFYICSAKEGTEAFFGQGTRLTVV
Take B8: the binding result is “recognises”.

B9: TCR108 (TCR, V domains shown)
Valpha: GENVEQHPSTLSVQEGDSAVIKCTYSDSASNYFPWYKQELGKRPQLIIDIRSNVGEKKDQRIAVTLNKTAKHFSLHITETQPEDSAVYFCAASMKDSSYKLIFGSGTRLLVRP
Vbeta: ETGVTQTPRHLVMGMTNKKSLKCEQHLGHNAMYWYKQSAKKPLELMFVYNFKEQTENNSVPSRFSPECPNSSHLFLHLHTLQPEDSALYLCASSQGPGYTFGSGTRLTVV
Take B9: the binding result is given as “recognises”.

B10: TCR317 (TCR, V domains shown)
Valpha: QKEVEQNSGPLSVPEGAIASLNCTYSDRGSQSFFWYRQYSGKSPELIMSIYSNGDKEDGRFTAQLNKASQYVSLLIRDSQPSDSATYLCAVNSSPYKLSFGAGTTVTVRA
Vbeta: ETGVTQTPRHLVMGMTNKKSLKCEQHLGHNAMYWYKQSAKKPLELMFVYNFKEQTENNSVPSRFSPECPNSSHLFLHLHTLQPEDSALYLCASSQGPGYTFGSGTRLTVV
For the molecule B10, the binding result is recorded as “recognises”.
